From patent publication US12410262B2, “Peptide conjugates of cytotoxins as therapeutics” (Cybrexa 2, Inc., priority 2019, dated 2025)

Experiments:
[1] = tested on: HCT116; assay: cells; type: cell-based, human; conditions: 96 h
In short: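 DLD-1 WT (2500/well), FaDu and HeLa (5000/well) and HCT116 (3000/well) were grown in 10% FBS media and dosed in triplicate 24 h after plating. After 96 h of drug exposure at 37 °C, cells were fixed, Hoechst-stained and counted by imaging; percent growth delay was calculated versus untreated controls.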

[2] = Plasma pharmacokinetics of Compound 11 in a rat model; type: in vivo, Sprague Dawley rats; conditions: single IV dose 5 mg/kg
Protocol: Male Sprague Dawley rats underwent jugular vein cannulation and insertion of a vascular access button (VAB, Instech Labs Cat #VABR1B/22) at Envigo Labs prior to shipment. Magnetic, aluminum caps (Instech Labs Cat #Cat #VABRC) were used to protect the access port for the jugular catheters allowing the animals to be housed 2 per cage on corn cob bedding for 4-5 days prior to the study. Rats were administered a single intravenous dose of 5 mg/kg Compound 11 prepared in a vehicle of 5% mannitol in citrate buffer. At 1, 2, 4, 8, 24 and 30 hours following compound administration, blood (250 μL) was collected into K2EDTA filled microtainers from fed rats. Plasma was isolated by centrifugation and 100 μL aliquots were transferred to 96-well polypropylene plates on dry ice. Samples were stored at −80° C. until processed for quantification of total peptide by ELISA and released exatecan by LC-MS/MS.
96-Well plates were coated with 100 μL/well of 0.1 μM BSA-labelled peptide prepared in 0.2 M Carbonate-Bicarbonate Buffer, pH 9.4 and incubated overnight at 4° C. […] Luminescence was read from the plate on a BioTek Cytation 5 plate reader.
For quantification of exatecan, a 20 μL plasma sample was added to a polypropylene autosampler vial. […] The samples were centrifuged for 5-10 minutes at 3700 rpm then analyzed via liquid chromatography tandem mass spectrometry (LC-MS/MS).

[3] = tested on: HCT116 xenografts; assay: Tumor and bone marrow pharmacokinetics in a mouse model; type: in vivo, athymic nude Foxn^nu mice; conditions: mouse bearing HCT116 xenograft, single IP dose 10 mg/kg
Protocol: Six-week-old female athymic nude Foxn^nu mice were obtained from Taconic Labs (Cat #NCRNU-F) and were housed 5 per cage on Alpha-Dri bedding in a disposable caging system (Innovive). Human HCT116 cancer cells derived from colorectal carcinoma were diluted 1:1 in Phenol Red-free Matrigel and subcutaneously implanted into the left flank of each mouse at a density of 2.5×10^6 cells in 100 μL. When xenografts reached a minimal volume of 300 mm^3, mice were administered a single intraperitoneal injection of 10 mg/kg Compound 11 prepared in a vehicle of 5% mannitol in citrate. Tumor and bone marrow samples were collected from fed, anesthetized mice at 1, 2, 4, 8, 16, 24, 32 and 48 hours after compound administration. Total peptide concentrations in tumor and bone marrow were determined via ELISA.
96-well plates were coated with 100 μL/well of 0.1 μM BSA-labelled peptide prepared in 0.2 M Carbonate-Bicarbonate Buffer, pH 9.4 and incubated overnight at 4° C. Plates were washed 4× with an ELISA wash buffer (PBS+0.05% Tween 20), incubated for 2 hours at room temperature with Blocking Buffer (PBS+5% dry milk+0.05% Tween 20) (300 μL/well) and washed again 4× with ELISA wash buffer. […] Luminescence was read from the plate on a BioTek Cytation 5 plate reader.

[4] = Plasma stability studies; type: in vitro ADME; conditions: rat plasma, 100 μM conjugate, 37° C.
In short: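 Conjugate at 100 μM final in rat plasma (diluted from DMSO stock via 100 mM Tris, pH 7.5), incubated at 37° C for up to 24 h, sampled at 0, 4 and 24 h. Samples acid/acetonitrile-extracted and analysed by HPLC; remaining conjugate expressed as peak area relative to time 0 ×100.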

Q: For CC[C@@]1(O)C(=O)OCc2c1cc1n(c2=O)Cc2c-1nc1cc(F)c(C)c3c1c2[C@@H](NC(=O)O[C@H]1CCCC[C@@H]1SSC[C@H](NC(=O)[C@H](Cc1c[nH]c2ccccc12)NC(=O)[C@H](CC(C)C)NC(=O)[C@H](CC(C)C)NC(=O)[C@H](CC(=O)O)NC(=O)[C@H](CC(C)C)NC(=O)[C@H](CC(C)C)NC(=O)[C@H](CC(C)C)NC(=O)[C@@H](NC(=O)[C@H](CC(=O)O)NC(=O)[C@@H](NC(=O)[C@@H]1CCCN1C(=O)[C@H](Cc1ccccc1)NC(=O)[C@H](CC(C)C)NC(=O)[C@H](CC(C)C)NC(=O)[C@H](CC(=O)O)NC(=O)[C@H](CC(C)C)NC(=O)[C@H](Cc1ccc(O)cc1)NC(=O)[C@H](C)NC(=O)[C@H](CCCNC(=N)N)NC(=O)[C@H](Cc1c[nH]c2ccccc12)NC(=O)[C@@H]1CCCN1C(=O)[C@H](CC(N)=O)NC(=O)[C@H](CCC(N)=O)NC(=O)[C@H](CC(=O)O)NC(=O)[C@H](CC(=O)O)NC(=O)[C@H](C)N)[C@@H](C)O)[C@@H](C)O)C(=O)NCC(=O)O)CC3 [Compound 11], which IC50 [1] is on record?
A: The IC50 was 22.6 nM.

Q: And the stable in plasma [2]?
A: The stable in plasma was “at least 30 h”.

Q: What about the “exatecan warhead released in circulation” value ([2]; after 30 h) of the same molecule?
A: The value was “less than 0.002%”.

Q: And the “peptide concentration in tumor and bone marrow (tumor targeting)” value [3]?
A: The value was “effectively targets tumors”.

Q: What about the remaining at 4 h, 100 µM ([4]; 4 hrs) of the same molecule?
A: The remaining at 4 h, 100 µM was 108%.

Q: What about the remaining at 24 h, 100 µM ([4]; 24 hrs) of the same molecule?
A: Its remaining at 24 h, 100 µM is 107%.
